Measured values taken from US20230265151A1, “GIP/GLP1 CO-AGONIST COMPOUNDS” (priority 2020, published 2023).

T1: human GIP receptor (human) (UniProt P48546)
T1 sequence (looked up): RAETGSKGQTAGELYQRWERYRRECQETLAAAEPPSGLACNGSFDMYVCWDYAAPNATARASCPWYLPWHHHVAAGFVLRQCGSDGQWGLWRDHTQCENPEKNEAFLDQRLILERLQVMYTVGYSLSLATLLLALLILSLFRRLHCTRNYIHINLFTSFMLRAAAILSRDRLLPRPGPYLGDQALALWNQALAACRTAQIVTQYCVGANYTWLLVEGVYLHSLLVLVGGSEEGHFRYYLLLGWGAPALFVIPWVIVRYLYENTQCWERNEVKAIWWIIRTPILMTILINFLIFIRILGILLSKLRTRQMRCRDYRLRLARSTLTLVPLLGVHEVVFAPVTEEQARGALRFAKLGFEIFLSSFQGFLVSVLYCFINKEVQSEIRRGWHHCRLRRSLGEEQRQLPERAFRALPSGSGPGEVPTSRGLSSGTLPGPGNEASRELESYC

T2: human GIP receptor (human, UniProt P48546 22-466)
T2 sequence (looked up): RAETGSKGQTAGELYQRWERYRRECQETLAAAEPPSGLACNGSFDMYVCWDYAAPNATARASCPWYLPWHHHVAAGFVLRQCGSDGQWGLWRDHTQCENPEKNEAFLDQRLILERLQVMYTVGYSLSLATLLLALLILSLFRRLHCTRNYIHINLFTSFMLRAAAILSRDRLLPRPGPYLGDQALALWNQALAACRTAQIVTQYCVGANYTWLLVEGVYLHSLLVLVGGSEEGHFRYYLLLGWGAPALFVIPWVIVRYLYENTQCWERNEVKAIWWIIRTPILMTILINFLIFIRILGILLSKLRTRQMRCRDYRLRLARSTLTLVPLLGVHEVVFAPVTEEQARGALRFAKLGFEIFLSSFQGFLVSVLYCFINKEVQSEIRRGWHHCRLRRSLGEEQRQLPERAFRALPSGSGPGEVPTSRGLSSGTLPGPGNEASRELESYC

T3: human GIP receptor (human, UniProt P48546 22-466)
T3 sequence (looked up): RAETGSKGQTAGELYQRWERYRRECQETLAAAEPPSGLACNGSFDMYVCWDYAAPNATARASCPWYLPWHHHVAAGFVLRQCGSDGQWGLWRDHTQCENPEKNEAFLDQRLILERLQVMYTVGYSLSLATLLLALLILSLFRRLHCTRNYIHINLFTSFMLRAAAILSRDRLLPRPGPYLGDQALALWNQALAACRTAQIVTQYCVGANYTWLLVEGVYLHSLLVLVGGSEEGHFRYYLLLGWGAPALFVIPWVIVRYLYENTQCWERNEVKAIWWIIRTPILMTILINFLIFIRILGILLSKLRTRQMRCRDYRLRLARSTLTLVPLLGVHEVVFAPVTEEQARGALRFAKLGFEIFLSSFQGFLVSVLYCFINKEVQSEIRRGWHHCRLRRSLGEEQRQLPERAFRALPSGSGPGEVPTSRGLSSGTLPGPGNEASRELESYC


Legend:
Assay in all cases: cell-based or functional assay
[1] = biological target: T1, human GIP receptor (human)
[2] = biological target: hGLP-1R (Homo sapiens, UniProt P43220)
[3] = biological target: human glucagon receptor (human) (UniProt P47871)
[4] = biological target: human GLP-1 receptor (human, UniProt P43220 24-463)
[5] = biological target: human glucagon receptor (human, UniProt P47871 26-477)
Target sequence in this assay (P47871 26-477): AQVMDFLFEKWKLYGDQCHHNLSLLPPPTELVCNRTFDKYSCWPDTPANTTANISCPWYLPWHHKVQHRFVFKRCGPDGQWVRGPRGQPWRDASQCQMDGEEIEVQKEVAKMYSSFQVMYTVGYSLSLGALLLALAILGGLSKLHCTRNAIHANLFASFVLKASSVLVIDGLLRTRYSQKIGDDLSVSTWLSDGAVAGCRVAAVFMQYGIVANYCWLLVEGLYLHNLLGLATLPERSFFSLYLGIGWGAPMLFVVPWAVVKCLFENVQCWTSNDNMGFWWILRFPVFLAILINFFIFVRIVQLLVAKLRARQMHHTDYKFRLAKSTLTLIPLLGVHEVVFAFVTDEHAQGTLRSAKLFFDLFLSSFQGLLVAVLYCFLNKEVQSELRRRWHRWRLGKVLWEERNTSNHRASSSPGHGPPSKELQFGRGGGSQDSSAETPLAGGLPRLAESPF

[6] = biological target: T2, human GIP receptor
[7] = biological target: T3, human GIP receptor; remark: listed apart in the source
[8] = biological target: human glucagon receptor (human, UniProt P47871 26-477); remark: listed apart in the source

Binder | cAMP EC50 [1] [nM] | cAMP Emax [1] [%] | cAMP EC50 [2] [nM] | cAMP Emax [2] [%] | cAMP EC50 [3] [nM] | cAMP EC50 (1.0% HSA) [4] [nM] | cAMP Emax (1.0% HSA) [4] [%] | cAMP EC50 (1.0% HSA) [5] [nM] | cAMP EC50 (1.0% HSA) [6] [nM] | cAMP EC50 (1.0% HSA) [7] [nM] | cAMP EC50 (1.0% HSA) [8] [nM] | cAMP Emax (1.0% HSA) [6] [%]
YXEGTXTSDXXIXLDXKAQXTFIXXLIKGGPSSGAPPPS (Y-Aib-EGT-αMeF(2F)-TSD-4Pal-Aib-I-αMeL-LD-Orn-K((2-[2-(2-Amino-ethoxy)-ethoxy]-acetyl)2-(γ-Glu)-CO-(CH2)10-CH3)AQ-Aib-TFI-(D-Glu)-αMeY-LIK((2-[2-(2-Amino-ethoxy)-ethoxy]-acetyl)2-(γ-Glu)-CO-(CH2)10-CH3)GGPSSGAPPPS-NH2) [Example 419] | 0.00958 | 101 | 0.132 | 113 | > 9950 | 7.19 | 97.3 | > 9950 | 0.44 | – | – | –
YXEGTXTSDXSIXLDXIAQXEFIXXLIKGGKSSGAPPPS (Aib2, αMeF(2F)6, 4Pal10, αMeL13, Orn16, Aib20, D-Glu24, αMeY25; acylated K28, K31 (groups as in name); C-terminal amide) [Y-Aib-EGT-αMeF(2F)-TSD-4Pal-SI-αMeL-LD-Orn-IAQ-Aib-EFI-(D-Glu)-αMeY-LIK((2-[2-(2-Amino-ethoxy)-ethoxy]-acetyl)2-(γ-Glu)-CO-(CH2)14-CH3)GGK((2-[2-(2-Amino-ethoxy …, listing 1 of 2 here] | – | – | – | – | – | – | – | – | – | 1.2 | > 9950 | –
YXEGTXTSDXXIXLDXQAQXKFIXXLIKGGPSSGAPPPS (Y-Aib-EGT-αMeF(2F)-TSD-4Pal-Aib-I-αMeL-LD-Orn-QAQ-Aib-K((2-[2-(2-Amino-ethoxy)-ethoxy]-acetyl)2-(γ-Glu)-CO-(CH2)12-CO2H)FI-(D-Glu)-αMeY-LIK((2-[2-(2-Amino-ethoxy)-ethoxy]-acetyl)2-(γ-Glu)-CO-(CH2)12-CO2H)GGPSSGAPPPS-NH2) [Example 488] | 0.0115 | 104 | 0.207 | 113 | > 10100 | 13 | – | > 9950 | 0.718 | – | – | 85.5
YXEGTXTSDKXIXLDGKAQXEFIXXLIEGGPSSGAPPPS (Y-Aib-EGT-αMeF(2F)-TSDK((2-[2-(2-Amino-ethoxy)-ethoxy]-acetyl)2-(γ-Glu)-CO-(CH2)10-CH3)-Aib-I-αMeL-LDGK((2-[2-(2-Amino-ethoxy)-ethoxy]-acetyl)2-(γ-Glu)-CO-(CH2)10-CH3)AQ-Aib-EFI-(D-Glu)-αMeY-LIEGGPSSGAPPPS-NH2) [Example 445] | 0.00728 | 102 | 0.0781 | 103 | > 9950 | 13.1 | 100 | > 9950 | 1.17 | – | – | 91.4
YXEGTXTSDXXIXLDXKAQXKXIXXLIEGGPSSGAPPPS (Y-Aib-EGT-αMeF(2F)-TSD-4Pal-Aib-I-αMeL-LD-Orn-K((2-[2-(2-Amino-ethoxy)-ethoxy]-acetyl)3-(γ-Glu)-CO-(CH2)10-CH3)AQ-Aib-K((2-[2-(2-Amino-ethoxy)-ethoxy]-acetyl)3-(γ-Glu)-CO-(CH2)10-CH3)-αMeF-I-(D-Glu)-αMeY-LIEGGPSSGAPPPS-NH2) [Example 437] | 0.0146 | 94.8 | 0.249 | 89.2 | > 9950 | 9.65 | 91.2 | > 9950 | 0.461 | – | – | 96.5
YXEGTXTSDKXIXLDXKAQXEFIXXLIEGGPSSGAPPPS (Y-Aib-EGT-αMeF(2F)-TSDK((2-[2-(2-Amino-ethoxy)-ethoxy]-acetyl)3-(γ-Glu)-CO-(CH2)10-CH3)-Aib-I-αMeL-LD-Orn-K((2-[2-(2-Amino-ethoxy)-ethoxy]-acetyl)3-(γ-Glu)-CO-(CH2)10-CH3)AQ-Aib-EFI-(D-Glu)-αMeY-LIEGGPSSGAPPPS-NH2) [Example 421] | 0.00618 | 100 | 0.057 | 101 | > 9950 | 2.01 | – | > 9950 | 0.164 | – | – | 98
YXEGTXTSDKXIXLDXKAQXXFIXXLIEGGPSSGAPPPS (Y-Aib-EGT-αMeF(2F)-TSDK((2-[2-(2-Amino-ethoxy)-ethoxy]-acetyl)3-(γ-Glu)-CO-(CH2)10-CH3)-Aib-I-αMeL-LD-Orn-K((2-[2-(2-Amino-ethoxy)-ethoxy]-acetyl)3-(γ-Glu)-CO-(CH2)10-CH3)AQ-Aib-Orn-FI-(D-Glu)-αMeY-LIEGGPSSGAPPPS-NH2) [Example 432] | 0.00602 | – | 0.0549 | 106 | > 9950 | 1.28 | – | > 9950 | 0.0875 | – | – | –
YXEGTXTSDXXIXLDXKAQXEXIXXLIKGGPSSGAPPPS (Y-Aib-EGT-αMeF(2F)-TSD-4Pal-Aib-I-αMeL-LD-Orn-K((2-[2-(2-Amino-ethoxy)-ethoxy]-acetyl)3-(γ-Glu)-CO-(CH2)10-CH3)AQ-Aib-E-αMeF-I-(D-Glu)-αMeY-LIK((2-[2-(2-Amino-ethoxy)-ethoxy]-acetyl)3-(γ-Glu)-CO-(CH2)10-CH3)GGPSSGAPPPS-NH2) [Example 438] | 0.0157 | 98.9 | 0.471 | 88.5 | > 9950 | 28 | 88.7 | > 9950 | 0.592 | – | – | 90.8
YXEGTXTSDXSIXLDXIAQXEFIXXLIKGGKSSGAPPPS (Aib2, αMeF(2F)6, 4Pal10, αMeL13, Orn16, Aib20, D-Glu24, αMeY25; acylated K28, K31 (groups as in name); C-terminal amide) [Y-Aib-EGT-αMeF(2F)-TSD-4Pal-SI-αMeL-LD-Orn-IAQ-Aib-EFI-(D-Glu)-αMeY-LIK((2-[2-(2-Amino-ethoxy)-ethoxy]-acetyl)2-(γ-Glu)-CO-(CH2)12-CO2H)GGK((2-[2-(2-Amino-ethox …, listing 2 of 2 here] | – | – | – | – | – | – | – | – | – | 1.66 | > 9950 | –
YXEGTXTSDXXIXLDXKAQXXFIXXLIKGGPSSGAPPPS (Y-Aib-EGT-αMeF(2F)-TSD-4Pal-Aib-I-αMeL-LD-Orn-K((2-[2-(2-Amino-ethoxy)-ethoxy]-acetyl)3-(γ-Glu)-CO-(CH2)10-CH3)AQ-Aib-Orn-FI-(D-Glu)-αMeY-LIK((2-[2-(2-Amino-ethoxy)-ethoxy]-acetyl)3-(γ-Glu)-CO-(CH2)10-CH3)GGPSSGAPPPS-NH2) [Example 434] | 0.00704 | 98.3 | 0.0837 | 104 | > 9950 | 1.73 | – | > 9950 | 0.0994 | – | – | 97.5
YXEGTXTSDKXIXLDXKAQXEXIXXLIEGGPSSGAPPPS (Y-Aib-EGT-αMeF(2F)-TSDK((2-[2-(2-Amino-ethoxy)-ethoxy]-acetyl)2-(γ-Glu)-CO-(CH2)10-CH3)-Aib-I-αMeL-LD-Orn-K((2-[2-(2-Amino-ethoxy)-ethoxy]-acetyl)2-(γ-Glu)-CO-(CH2)10-CH3)AQ-Aib-E-αMeF-I-(D-Glu)-αMeY-LIEGGPSSGAPPPS-NH2) [Example 429] | 0.00799 | 108 | 0.116 | 116 | > 9950 | 17.3 | – | > 9950 | 1.03 | – | – | 93.3
YXEGTXTSDKXIXLDXKAQXEXIXXLIEGGPSSGAPPPS (Y-Aib-EGT-αMeF(2F)-TSDK((2-[2-(2-Amino-ethoxy)-ethoxy]-acetyl)3-(γ-Glu)-CO-(CH2)10-CH3)-Aib-I-αMeL-LD-Orn-K((2-[2-(2-Amino-ethoxy)-ethoxy]-acetyl)3-(γ-Glu)-CO-(CH2)10-CH3)AQ-Aib-E-αMeF-I-(D-Glu)-αMeY-LIEGGPSSGAPPPS-NH2) [Example 436] | 0.00714 | 102 | 0.102 | 98.9 | > 9950 | 4.98 | – | > 9950 | 0.241 | – | – | 96
